Data taken from patent publication US20240261333A1 (published 2024).

T1: SYNCRIP (human, UniProt O60506-3 2-562, limits assumed)
T1 construct: also called NP_001153148.1 (+1)
T1 sequence (looked up): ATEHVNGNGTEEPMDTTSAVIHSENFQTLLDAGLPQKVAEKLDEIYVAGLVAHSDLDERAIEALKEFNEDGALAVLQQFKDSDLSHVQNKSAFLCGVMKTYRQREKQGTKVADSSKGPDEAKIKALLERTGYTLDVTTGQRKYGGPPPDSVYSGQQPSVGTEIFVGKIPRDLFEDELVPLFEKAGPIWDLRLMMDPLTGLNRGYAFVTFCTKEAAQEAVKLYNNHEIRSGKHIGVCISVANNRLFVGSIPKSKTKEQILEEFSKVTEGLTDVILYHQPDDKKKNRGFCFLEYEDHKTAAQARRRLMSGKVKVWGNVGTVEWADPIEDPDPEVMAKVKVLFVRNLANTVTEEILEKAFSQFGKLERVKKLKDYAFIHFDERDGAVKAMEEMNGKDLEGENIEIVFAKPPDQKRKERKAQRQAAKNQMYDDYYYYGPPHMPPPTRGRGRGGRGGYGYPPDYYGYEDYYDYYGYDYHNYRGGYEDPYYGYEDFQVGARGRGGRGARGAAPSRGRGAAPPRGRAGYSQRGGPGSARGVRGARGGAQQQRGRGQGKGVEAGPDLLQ

T2: S100A7 (human, UniProt P31151 2-101)
T2 construct: also called NP_002954.2
T2 sequence (looked up): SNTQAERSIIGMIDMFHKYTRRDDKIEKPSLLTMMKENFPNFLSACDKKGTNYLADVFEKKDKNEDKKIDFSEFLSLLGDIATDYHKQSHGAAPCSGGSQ

T3: PURA (human, UniProt Q00577 2-322)
T3 construct: also called NP_005850.1
T3 sequence (looked up): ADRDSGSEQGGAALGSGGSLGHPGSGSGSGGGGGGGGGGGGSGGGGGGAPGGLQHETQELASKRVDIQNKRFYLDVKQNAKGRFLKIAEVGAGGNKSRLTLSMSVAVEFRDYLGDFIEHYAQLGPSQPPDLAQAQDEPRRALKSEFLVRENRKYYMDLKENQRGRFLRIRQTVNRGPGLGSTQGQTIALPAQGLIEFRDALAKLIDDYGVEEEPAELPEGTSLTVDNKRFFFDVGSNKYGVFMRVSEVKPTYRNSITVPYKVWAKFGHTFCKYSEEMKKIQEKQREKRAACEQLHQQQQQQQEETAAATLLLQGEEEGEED


What was measured:
Assay in all cases: co-IP with anti-FLAG, N-FLAG B3GNT2, mass spectrometry
SYNCRIP = target: T1, SYNCRIP
GBF1 = target: T4, GBF1 (human, UniProt Q92538 1-1860, limits assumed)
T4 construct: also called NP_001186307.1 (+13)

DHX9 = target: T5, DHX9 (human, UniProt Q08211 1-1270)
T5 construct: also called NP_001348.2

S100A7 = target: T2, S100A7
RPL23 = RPL23 (human, UniProt P62829 1-140)
PURA = target: T3, PURA
LAMC1 = target: T6, LAMC1 (human, UniProt P11047 34-1609)
T6 construct: also called NP_002284.3

RPS24 = target: T7, RPS24 (human, UniProt P62847-4 1-289, limits assumed)
T7 construct: also called NP_001135757.1

DDX3X = target: T8, DDX3X (human, UniProt O00571 2-662)
T8 construct: also called NP_001180345.1 (+1)

P4HA2 = target: T9, P4HA2 (human, UniProt O15460 22-535, limits assumed)
T9 construct: also called NP_001352606.1 (+3)
T9 sequence (O15460 22-535 limits assumed): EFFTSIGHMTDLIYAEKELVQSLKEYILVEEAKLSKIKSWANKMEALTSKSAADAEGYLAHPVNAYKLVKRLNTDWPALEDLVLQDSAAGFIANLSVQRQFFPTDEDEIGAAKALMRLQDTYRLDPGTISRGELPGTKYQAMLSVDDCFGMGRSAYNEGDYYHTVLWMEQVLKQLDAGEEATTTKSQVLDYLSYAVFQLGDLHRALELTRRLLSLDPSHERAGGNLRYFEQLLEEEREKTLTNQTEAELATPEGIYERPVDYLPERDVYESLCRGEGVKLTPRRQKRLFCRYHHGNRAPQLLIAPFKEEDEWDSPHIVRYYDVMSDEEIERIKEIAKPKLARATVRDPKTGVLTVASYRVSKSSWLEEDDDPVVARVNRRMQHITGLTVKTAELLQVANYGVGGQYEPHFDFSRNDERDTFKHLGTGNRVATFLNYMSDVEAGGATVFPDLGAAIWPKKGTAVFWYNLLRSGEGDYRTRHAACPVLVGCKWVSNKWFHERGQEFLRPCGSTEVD

T4 sequence (Q92538 whole entry): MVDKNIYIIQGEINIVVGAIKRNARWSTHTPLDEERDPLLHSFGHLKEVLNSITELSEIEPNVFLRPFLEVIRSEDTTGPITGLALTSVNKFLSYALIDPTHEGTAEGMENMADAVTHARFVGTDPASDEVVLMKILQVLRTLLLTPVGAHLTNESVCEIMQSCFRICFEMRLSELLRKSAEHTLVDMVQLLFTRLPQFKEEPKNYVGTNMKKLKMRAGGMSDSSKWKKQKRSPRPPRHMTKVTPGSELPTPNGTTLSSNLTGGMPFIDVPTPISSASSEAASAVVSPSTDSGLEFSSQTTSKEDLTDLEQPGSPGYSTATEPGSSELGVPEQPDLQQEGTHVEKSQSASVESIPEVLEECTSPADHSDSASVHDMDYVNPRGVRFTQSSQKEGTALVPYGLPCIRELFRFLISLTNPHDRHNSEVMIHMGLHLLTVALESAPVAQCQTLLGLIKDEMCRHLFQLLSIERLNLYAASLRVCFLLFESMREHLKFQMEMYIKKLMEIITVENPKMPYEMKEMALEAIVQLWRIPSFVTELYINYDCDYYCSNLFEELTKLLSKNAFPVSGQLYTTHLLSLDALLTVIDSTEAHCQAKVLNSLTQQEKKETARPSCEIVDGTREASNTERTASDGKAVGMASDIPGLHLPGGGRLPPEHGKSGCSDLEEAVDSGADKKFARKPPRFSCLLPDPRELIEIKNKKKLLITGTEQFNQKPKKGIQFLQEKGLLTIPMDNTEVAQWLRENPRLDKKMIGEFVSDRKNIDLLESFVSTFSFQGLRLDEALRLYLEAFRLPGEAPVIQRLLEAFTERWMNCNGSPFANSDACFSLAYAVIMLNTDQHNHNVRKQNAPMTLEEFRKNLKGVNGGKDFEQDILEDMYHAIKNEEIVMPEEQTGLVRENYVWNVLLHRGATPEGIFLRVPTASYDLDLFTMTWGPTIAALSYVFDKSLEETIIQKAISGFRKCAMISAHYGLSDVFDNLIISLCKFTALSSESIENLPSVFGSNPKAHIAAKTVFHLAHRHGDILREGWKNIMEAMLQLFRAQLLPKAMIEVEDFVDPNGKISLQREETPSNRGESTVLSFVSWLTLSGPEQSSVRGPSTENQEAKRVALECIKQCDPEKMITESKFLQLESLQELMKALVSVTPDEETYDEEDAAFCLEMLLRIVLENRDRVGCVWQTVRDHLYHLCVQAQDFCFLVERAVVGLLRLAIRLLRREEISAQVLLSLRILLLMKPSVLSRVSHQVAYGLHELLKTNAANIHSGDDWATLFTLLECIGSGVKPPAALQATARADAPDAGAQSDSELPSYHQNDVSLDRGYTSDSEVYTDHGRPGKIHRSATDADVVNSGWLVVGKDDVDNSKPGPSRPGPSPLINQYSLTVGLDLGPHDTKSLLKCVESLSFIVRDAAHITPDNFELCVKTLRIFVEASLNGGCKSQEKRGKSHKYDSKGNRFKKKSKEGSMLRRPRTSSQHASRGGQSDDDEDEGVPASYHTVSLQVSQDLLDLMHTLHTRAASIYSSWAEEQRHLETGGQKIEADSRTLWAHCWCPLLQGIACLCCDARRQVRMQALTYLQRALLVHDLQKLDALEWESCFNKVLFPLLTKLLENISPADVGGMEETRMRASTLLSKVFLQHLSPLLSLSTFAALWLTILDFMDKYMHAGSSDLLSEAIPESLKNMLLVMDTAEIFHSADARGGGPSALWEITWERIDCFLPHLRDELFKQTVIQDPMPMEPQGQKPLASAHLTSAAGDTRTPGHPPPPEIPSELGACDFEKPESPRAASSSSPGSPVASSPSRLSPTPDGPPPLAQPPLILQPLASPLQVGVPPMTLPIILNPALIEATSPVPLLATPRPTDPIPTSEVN
T5 sequence (Q08211 whole entry): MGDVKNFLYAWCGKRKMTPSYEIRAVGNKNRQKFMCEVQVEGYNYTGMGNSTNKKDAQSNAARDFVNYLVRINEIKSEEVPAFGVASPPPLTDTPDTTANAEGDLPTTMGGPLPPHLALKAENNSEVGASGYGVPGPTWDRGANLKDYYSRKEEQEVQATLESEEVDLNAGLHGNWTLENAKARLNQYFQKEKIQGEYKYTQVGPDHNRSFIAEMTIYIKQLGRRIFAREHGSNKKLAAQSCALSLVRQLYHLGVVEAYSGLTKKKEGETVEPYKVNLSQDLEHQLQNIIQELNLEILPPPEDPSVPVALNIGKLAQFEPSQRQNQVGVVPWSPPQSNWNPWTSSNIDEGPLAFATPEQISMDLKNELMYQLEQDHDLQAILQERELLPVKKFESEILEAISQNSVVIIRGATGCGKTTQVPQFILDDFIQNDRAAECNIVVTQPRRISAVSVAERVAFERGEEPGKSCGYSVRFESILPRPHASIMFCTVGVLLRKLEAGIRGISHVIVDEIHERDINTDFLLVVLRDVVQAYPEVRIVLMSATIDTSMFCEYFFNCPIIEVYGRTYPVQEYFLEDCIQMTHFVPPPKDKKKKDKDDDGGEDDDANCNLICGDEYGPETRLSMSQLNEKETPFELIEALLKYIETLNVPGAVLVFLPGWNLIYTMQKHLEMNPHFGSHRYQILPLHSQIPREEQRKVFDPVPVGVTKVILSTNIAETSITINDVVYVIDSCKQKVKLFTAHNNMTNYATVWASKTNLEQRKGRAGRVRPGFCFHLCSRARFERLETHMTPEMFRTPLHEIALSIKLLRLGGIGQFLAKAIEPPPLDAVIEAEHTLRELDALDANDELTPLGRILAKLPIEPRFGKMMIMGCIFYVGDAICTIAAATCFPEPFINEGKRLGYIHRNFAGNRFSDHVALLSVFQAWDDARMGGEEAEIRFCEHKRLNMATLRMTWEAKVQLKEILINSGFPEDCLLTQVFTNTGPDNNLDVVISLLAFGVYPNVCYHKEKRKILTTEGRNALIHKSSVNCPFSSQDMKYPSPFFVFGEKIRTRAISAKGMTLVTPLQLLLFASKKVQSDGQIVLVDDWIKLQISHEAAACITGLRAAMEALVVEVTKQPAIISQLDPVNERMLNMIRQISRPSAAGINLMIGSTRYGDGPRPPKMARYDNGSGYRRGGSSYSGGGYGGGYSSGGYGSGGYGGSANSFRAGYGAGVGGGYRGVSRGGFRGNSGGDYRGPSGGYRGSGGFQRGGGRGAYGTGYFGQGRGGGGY
T7 sequence (P62847 other isoform, or with tags, fused parts or gaps limits assumed): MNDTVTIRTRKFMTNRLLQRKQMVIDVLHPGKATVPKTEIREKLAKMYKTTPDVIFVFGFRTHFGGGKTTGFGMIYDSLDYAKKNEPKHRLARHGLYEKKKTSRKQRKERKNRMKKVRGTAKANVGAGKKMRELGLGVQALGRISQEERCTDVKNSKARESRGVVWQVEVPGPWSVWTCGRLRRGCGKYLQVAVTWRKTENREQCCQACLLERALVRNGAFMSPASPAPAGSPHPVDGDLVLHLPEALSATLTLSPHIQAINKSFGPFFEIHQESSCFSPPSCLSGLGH
T8 sequence (O00571 2-662 limits assumed): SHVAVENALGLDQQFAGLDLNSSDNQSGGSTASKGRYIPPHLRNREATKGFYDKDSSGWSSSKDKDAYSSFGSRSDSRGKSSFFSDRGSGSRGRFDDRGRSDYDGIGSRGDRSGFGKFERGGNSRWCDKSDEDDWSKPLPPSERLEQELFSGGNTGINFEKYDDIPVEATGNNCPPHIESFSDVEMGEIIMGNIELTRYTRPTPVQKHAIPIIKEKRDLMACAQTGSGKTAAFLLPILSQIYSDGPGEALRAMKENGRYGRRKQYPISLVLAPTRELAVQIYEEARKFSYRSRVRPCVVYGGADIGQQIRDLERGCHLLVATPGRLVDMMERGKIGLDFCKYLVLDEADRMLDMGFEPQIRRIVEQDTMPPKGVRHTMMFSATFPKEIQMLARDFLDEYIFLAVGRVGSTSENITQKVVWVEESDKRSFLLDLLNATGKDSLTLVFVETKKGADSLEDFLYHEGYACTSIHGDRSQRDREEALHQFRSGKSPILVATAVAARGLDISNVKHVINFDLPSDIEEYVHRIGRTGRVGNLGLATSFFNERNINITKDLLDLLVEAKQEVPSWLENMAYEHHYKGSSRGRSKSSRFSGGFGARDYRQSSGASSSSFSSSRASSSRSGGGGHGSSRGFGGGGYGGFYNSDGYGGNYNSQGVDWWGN

co-IP mass spectrometry count (SYNCRIP) | co-IP mass spectrometry count (GBF1) | co-IP mass spectrometry count (DHX9) | co-IP mass spectrometry count (S100A7) | co-IP mass spectrometry count (RPL23) | co-IP/MS count, N-term FLAG (PURA) | co-IP/MS count, N-term FLAG (LAMC1) | co-IP/MS count, N-term FLAG (RPS24) | co-IP/MS count, N-term FLAG (DDX3X) | co-IP/MS count, N-term FLAG (P4HA2) | Binder
2 | 0 | 0 | 3 | 7 |  |  |  |  |  | N-terminal FLAG tagged B3GNT2 (enzyme, human, UniProt Q9NY97 1-397, looked up, FLAG-tagged ORF overexpressed in cells; pulled down from lysate with mouse anti-FLAG; also called N-FLAG B3GNT2; N-term FLAG; not shown: N-terminal FLAG tag) MSVGRRRIKLLGILMMANVFIYFIMEVSKSSSQEKNGKGEVIIPKEKFWKISTPPEAYWNREQEKLNRQYNPILSMLTNQTGEAGRLSNISHLNYCEPDLRVTSVVTGFNNLPDRFKDFLLYLRCRNYSLLIDQPDKCAKKPFLLLAIKSLTPHFARRQAIRESWGQESNAGNQTVVRVFLLGQTPPEDNHPDLSDMLKFESEKHQDILMWNYRDTFFNLSLKEVLFLRWVSTSCPDTEFVFKGDDDVFVNTHHILNYLNSLSKTKAKDLFIGDVIHNAGPHRDKKLKYYIPEVVYSGLYPPYAGGGGFLYSGHLALRLYHITDQVHLYPIDDVYTGMCLQKLGLVPEKHKGFRTFDIEEKNKNNICSYVDLMLVHSRKPQEMIDIWSQLQSAHLKC
 |  |  |  |  | 0 | 0 | 0 | 18 | 0 | N-terminal FLAG tagged B3GNT2 (enzyme, human, UniProt Q9NY97 1-397, looked up, FLAG-tagged ORF overexpressed in A375 cells; pulled down from the lysate with mouse anti-FLAG; also called N-FLAG B3GNT2; N-term FLAG; not shown: N-terminal FLAG tag) MSVGRRRIKLLGILMMANVFIYFIMEVSKSSSQEKNGKGEVIIPKEKFWKISTPPEAYWNREQEKLNRQYNPILSMLTNQTGEAGRLSNISHLNYCEPDLRVTSVVTGFNNLPDRFKDFLLYLRCRNYSLLIDQPDKCAKKPFLLLAIKSLTPHFARRQAIRESWGQESNAGNQTVVRVFLLGQTPPEDNHPDLSDMLKFESEKHQDILMWNYRDTFFNLSLKEVLFLRWVSTSCPDTEFVFKGDDDVFVNTHHILNYLNSLSKTKAKDLFIGDVIHNAGPHRDKKLKYYIPEVVYSGLYPPYAGGGGFLYSGHLALRLYHITDQVHLYPIDDVYTGMCLQKLGLVPEKHKGFRTFDIEEKNKNNICSYVDLMLVHSRKPQEMIDIWSQLQSAHLKC
